“And” between values parts separate entries of the source, which are not always exact repeats. Equal entries are not always repeated. One block for each substance: values may come before it.
How the values were obtained:
[1] = biological target: SoxR Cys50Ser, Strep-tagged (Hyphomicrobium denitrificans); experiment: SEC; Superdex 75 Increase 10/300 GL, calibrated with mass standards; 50 mM Tris-HCl, pH 8.0, 150 mM NaCl; 0.8 mL/min; self-association of SoxR
[2] = biological target: Hyphomicrobium denitrificans SoxR, Strep-tagged wild type (Hyphomicrobium denitrificans); experiment: as above
[3] = biological target: T1, SoxR (Hyphomicrobium denitrificans) (UniProt D8JT35); experiment: EMSA; conditions: EMSA: 10 mM Tris-HCl pH 8.0, 50 mM KCl, 1 mM DTT, about 7% glycerol, 17 nM DNA, 15 ul; 20 min at room temperature, then 30 min at 30 C with DNA; 6% native gel …
T1 sequence: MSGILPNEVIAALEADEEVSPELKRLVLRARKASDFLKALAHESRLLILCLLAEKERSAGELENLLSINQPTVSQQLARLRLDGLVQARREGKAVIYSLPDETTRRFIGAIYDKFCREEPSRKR

[4] = biological target: SoxR Cys116Ser, Strep-tagged (Hyphomicrobium denitrificans); experiment: SEC; Superdex 75 Increase 10/300 GL, calibrated with mass standards; 50 mM Tris-HCl, pH 8.0, 150 mM NaCl; 0.8 mL/min; self-association of SoxR
[5] = biological target: SoxR Cys50Ser Cys116Ser, Strep-tagged (Hyphomicrobium denitrificans); experiment: as above

- stoichiometry N [1]: 2 and 4
Substance: SoxR Cys50Ser, Strep-tagged (natural protein)

- stoichiometry N [4]: 2 and 4
Substance: SoxR Cys116Ser, Strep-tagged (natural protein)

- stoichiometry N [5]: 2 and 4
Substance: SoxR Cys50Ser Cys116Ser, Strep-tagged (natural protein)

Continued, substance first:

Substance: Hyphomicrobium denitrificans SoxR, Strep-tagged wild type (natural protein)
- stoichiometry N [2]: 2 and 4

Substance: GGGTCACCAAATTCTGCAGGTCTCAATGCGAATGCGAGGCTGCTCCAGCTAGACGAAAAACAAGGAACGTTGCAATAGATAATTCACATATGATAATTTTCATATGTGTTATAGGATGAACGTTATCGCAGCTTCCGGGAGAGATGGCGTGAT (double strand) [soxA-soxY intergenic fragment, 151 bp]
- binding [3]: binds

From PMC10451225
